Results taken from publication PMC8121154, “The effects of pH and NaCl concentration on the structure of β‐casein from buffalo milk” (Food Science & Nutrition, 2021).

Target: the molecule itself
Experiment: dynamic light scattering; purified β‐CN in 10 mM sodium phosphate buffer at pH 5.5 and pH 5.0, room temperature; aggregates, micelles of 100 nm at pH 5.0

B1: native β‐casein purified from buffalo milk (natural protein, buffalo (purified from buffalo milk), UniProt Q9TSI0 16-224, looked up)
chain: RELEELNVPGEIVESLSSSEESITHINKKIEKFQSEEQQQMEDELQDKIHPFAQTQSLVYPFPGPIPKSLPQNIPPLTQTPVVVPPFLQPEIMGVSKVKEAMAPKHKEMPFPKYPVEPFTESQSLTLTDVENLHLPLPLLQSWMHQPPQPLPPTVMFPPQSVLSLSQSKVLPVPQKAVPYPQRDMPIQAFLLYQEPVLGPVRGPFPIIV
notes: β‐casein of buffalo milk (water buffalo), native protein purified from milk; single band of approximately 25 kDa on SDS-PAGE; Native milk protein; also called β‐CN; buffalo β‐CN
binding result: binds
